± gives the standard deviation of the averaged measurements.
Test: total protein half-life in vivo (active degradation + dilution); higher = more stable protein
[1] = E. coli NCM3722 delta-clpP delta-lon delta-hslV, growth: N-lim chemostat, doubling time 6 h
[2] = E. coli NCM3722 delta-clpP, growth: N-lim chemostat, doubling time 6 h
[3] = E. coli NCM3722 delta-hslV, growth: N-lim chemostat, doubling time 6 h
[4] = E. coli NCM3722 delta-lon, growth: N-lim chemostat, doubling time 6 h
[5] = E. coli NCM3722 delta-smpB, growth: N-lim chemostat, doubling time 6 h
[6] = wild type E. coli NCM3722, growth: C-lim chemostat, doubling time 3 h
[7] = wild type E. coli NCM3722, growth: C-lim chemostat, doubling time 6 h
[8] = wild type E. coli NCM3722, growth: C-lim chemostat, doubling time 12 h
[9] = wild type E. coli NCM3722, growth: N-lim chemostat, doubling time 6 h
[10] = wild type E. coli NCM3722, growth: N-lim chemostat, doubling time 12 h
[11] = wild type E. coli NCM3722, growth: P-lim chemostat, doubling time 6 h
[12] = wild type E. coli NCM3722, growth: P-lim chemostat, doubling time 12 h

Row | Sequence | total protein half-life in vivo [1] [h] | total protein half-life in vivo [2] [h] | total protein half-life in vivo [3] [h] | total protein half-life in vivo [4] [h] | total protein half-life in vivo [5] [h] | total protein half-life in vivo [6] [h] | total protein half-life in vivo [7] [h] | total protein half-life in vivo [8] [h] | total protein half-life in vivo [9] [h] | total protein half-life in vivo [10] [h] | total protein half-life in vivo [11] [h] | total protein half-life in vivo [12] [h]
1 | MKYKLLPCLLAIFLTGCDRTEVTLSFTPEMASFSNEFDFDPLRGPVKDFTQTLMDEQGEVTKRVSGTLSEEGCFDSLELLDLENNTVVALVLDANYYRDAETLEKRVRLQGKCQLAELPSAGVSWETDDNGFVIKASSKQMQMEYRYDDQGYPLGKTTKSNDKTLSVSATPSTDPIKKLDYTAVTLLNNQRVGNVKQSCEYDSHANPVDCQLIIVDEGVKPAVERVYTIKNTIDYY | 2.15 ± 0.28 | 2 ± 0.022 | 2.16 ± 0.13 | 1.87 | 1.81 ± 0.19 | 1.64 ± 0.1 | 2.38 ± 0.077 | 2.85 ± 0.52 | 2.24 ± 0.56 | 2.51 ± 0.27 | 2.13 ± 0.32 | 3.98 ± 0.97
2 | METLIAISRWLAKQHVVTWCVQQEGELWCANAFYLFDAQKVAFYILTEEKTRHAQMSGPQAAVAGTVNGQPKTVALIRGVQFKGEIRRLEGEESDLARKAYNRRFPVARMLSAPVWEIRLDEIKFTDNTLGFGKKMIWLRDSGTEQA | 5.46 ± 0.32 | 5.48 ± 0.64 | – | – | 4.81 ± 0.52 | – | 6.11 ± 0.22 | 13.5 ± 1.2 | 5.11 ± 0.18 | 9.39 ± 0.75 | 5.48 ± 1.1 | 12.5 ± 0.68
3 | MFENITAAPADPILGLADLFRADERPGKINLGIGVYKDETGKTPVLTSVKKAEQYLLENETTKNYLGIDGIPEFGRCTQELLFGKGSALINDKRARTAQTPGGTGALRVAADFLAKNTSVKRVWVSNPSWPNHKSVFNSAGLEVREYAYYDAENHTLDFDALINSLNEAQAGDVVLFHGCCHNPTGIDPTLEQWQTLAQLSVEKGWLPLFDFAYQGFARGLEEDAEGLRAFAAMHKELIVASSYSKNFGLYNERVGACTLVAADSETVDRAFSQMKAAIRANYSNPPAHGASVVATILSNDALRAIWEQELTDMRQRIQRMRQLFVNTLQEKGANRDFSFIIKQNGMFSFSGLTKEQVLRLREEFGVYAVASGRVNVAGMTPDNMAPLCEAIVAVL | 4.59 ± 0.58 | 4.02 ± 0.34 | 3.88 ± 0.059 | 4.44 ± 0.22 | 3.789 ± 0.034 | 3.16 ± 0.23 | 5.555 ± 0.041 | 10.29 ± 0.024 | 3.86 ± 0.14 | 5.97 ± 0.14 | 5.69 ± 0.19 | 11.84 ± 0.03
4 | MSSKEQKTPEGQAPEEIIMDQHEEIEAVEPEASAEQVDPRDEKVANLEAQLAEAQTRERDGILRVKAEMENLRRRTELDIEKAHKFALEKFINELLPVIDSLDRALEVADKANPDMSAMVEGIELTLKSMLDVVRKFGVEVIAETNVPLDPNVHQAIAMVESDDVAPGNVLGIMQKGYTLNGRTIRAAMVTVAKAKA | 6.35 ± 0.23 | 6.61 ± 1.3 | 5.31 ± 0.46 | 5.19 ± 0.26 | 4.79 ± 0.18 | 3.024 ± 0.0063 | 5.43 ± 0.17 | 9.26 ± 0.18 | 5.66 ± 0.14 | 8.74 ± 0.79 | 5.26 ± 0.24 | 10.7 ± 0.15
5 | MTWLPLNPIPLKDRVSMIFLQYGQIDVIDGAFVLIDKTGIRTHIPVGSVACIMLEPGTRVSHAAVRLAAQVGTLLVWVGEAGVRVYASGQPGGARSDKLLYQAKLALDEDLRLKVVRKMFELRFGEPAPARRSVEQLRGIEGSRVRATYALLAKQYGVTWNGRRYDPKDWEKGDTINQCISAATSCLYGVTEAAILAAGYAPAIGFVHTGKPLSFVYDIADIIKFDTVVPKAFEIARRNPGEPDREVRLACRDIFRSSKTLAKLIPLIEDVLAAGEIQPPAPPEDAQPVAIPLPVSLGDAGHRSS | 4.85 ± 0.84 | – | – | – | 1.32 ± 0.25 | 3.48 | 3.62 ± 1.9 | 5.4 | 1.32 | – | 2.23 | –
6 | MDQALLDGGYRCYTGEKIDVYFNTAICQHSGNCVRGNGKLFNLKRKPWIMPDEVDVATVVKVIDTCPSGALKYRHK [P0AF59] | 5.57 ± 0.28 | 5.03 | 5.21 ± 0.78 | 6.02 ± 0.5 | 4.29 ± 0.66 | 1.83 | – | 8.02 | 5.6 ± 1 | 8.71 ± 1.1 | – | 10.5 ± 0.21
7 | MESLSEGTTAGYQQIHDGIIHLVDSARTETVRSVNALMTATYQEIGRRIVEFEQGGEARAAYGAQLIKRLSKDLCLRYKRGFSAKNLRQMRLFYLFFQHVEIHQTMSGELTPLGIPQTPSAEFPSAKIWQTLSAKSFPLPRSTYVRLLSVKNADARSFYEKETLRCGWSVRQLERQIATQFYERTLLSHDKSAMLQQHAPAETHILPQQAIRDPFVLEFLELKDEYSESDFEEALINHLMDFMLELGDDFAFVGRQRRLRIDDNWFRVDLLFFHRRLRCLLIVDLKVGKFSYSDAGQMNMYLNYAKEHWTLPDENPPIGLVLCAEKGAGEAHYALAGLPNTVLASEYKMQLPDEKRLADELVRTQAVLEEGYRRR | – | – | 5.34 | – | – | – | 5.89 | – | – | – | – | –
8 | MQPNDITFFQRFQDDILAGRKTITIRDESESHFKTGDVLRVGRFEDDGYFCTIEVTATSTVTLDTLTEKHAEQENMTLTELKKVIADIYPGQTQFYVIEFKCL | – | 5.77 ± 0.22 | 5.77 ± 0.14 | 6.02 ± 0.22 | 6.22 ± 0.28 | 3.49 ± 0.34 | 5.2 ± 1.4 | 10.4 ± 3.3 | 6.12 ± 0.24 | 11.3 ± 0.97 | 6.47 ± 0.56 | 14 ± 0.55

Source: the supplement of paper PMC11246515
